Experimental data reported in article PMC3155659.

Biological target: amyloid precursor protein (APP), endogenous mouse (mouse (endogenous in mouse brain and primary neurons))
Assay: co-IP

B1: Disabled1 (Dab1), endogenous mouse (natural protein)
chain: MSTETELQVAVKTSAKKDSRKKGQDRSEATLIKRFKGEGVRYKAKLIGIDEVSAARGDKLCQDSMMKLKGVVAGARSKGEHKQKIFLTISFGGIKIFDEKTGALQHHHAVHEISYIAKDITDHRAFGYVCGKEGNHRFVAIKTAQAAEPVILDLRDLFQLIYELKQREELEKKAQKDKQCEQAVYQTILEEDVEDPVYQYIVFEAGHEPIRDPETEENIYQVPTSQKKEGVYDVPKSQPNSQPLEDFESRFAAATPNRNLSMDFDELLEATKVSAVTQLELFGDMSTPPDITSPPTPATPGDAFLPSSSQTLPGSADVFGSMSFGTAAVPSGYVAMGAVLPSFWGQQPLVQQQIAMGAQPPVAQVIPGAQPIAWGQPGLFPATQQAWPTVAGQFPPAAFMPTQTVMPLAAAMFQGPLTPLATVPGTNDSARSSPQSDKPRQKMGKESFKDFQMVQPPPVPSRKPDQPSLTCTSEAFSSYFNKVGVAQDTDDCDDFDISQLNLTPVTSTTPSTNSPPTPAPRQSSPSKSSASHVSDPTADDIFEEGFESPSKSEEQEAPDGSQASSTSDPFGEPSGEPSGDNISPQDGS
**Q.** Which results are given for B1?
**A.** decrease in APP-Dab1 co-precipitation against control, 20 min of Reelin: 89 % decrease; decrease in APP-Dab1 co-precipitation against control, 1 hr of Reelin: 87 % decrease; decrease in APP-Dab1 co-precipitation against control, 4 hrs of Reelin: 67 % decrease
